From US20240024501A1 (BONUM THERAPEUTICS, published 2024) come the findings set out here.

In assay [1] the target is T1, human IL-2 (human, UniProt P60568 21-153, biotin label in the IL2RB blocking assay).
T1 construct: also called biotin-labeled IL-2 (Acro Biosystems IL2-H82E4)
Description: HTRF, IL-2:Fc-IL2RB. (In general: In TR-FRET formats the signal depends on donor and acceptor labels being close together.)
Description: (§1) The PURExpress scFv proteins were used directly in HTRF binding assays and cell-based functional assays.

In assay [2] the target is T1, human IL-2. The assay is described as follows: HTRF.
Description: as §1
In the next assay the target is PD-1 (human, UniProt Q15116 25-167, limits assumed). The assay is described as follows: HTRF.
PD-1, sequence (Q15116 25-167 limits assumed): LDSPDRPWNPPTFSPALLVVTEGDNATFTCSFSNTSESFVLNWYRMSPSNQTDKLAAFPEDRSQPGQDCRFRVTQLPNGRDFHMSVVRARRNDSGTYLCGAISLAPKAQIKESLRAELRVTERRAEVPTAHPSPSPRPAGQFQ
Another assay concerns the target T2, PD-L1 (Eu-labeled) (UniProt Q9NZQ7 19-238, limits assumed, Eu label).
T2 construct: also called Eu-labeled PD-L1
Description: HTRF.

T1 sequence (P60568 21-153 limits assumed): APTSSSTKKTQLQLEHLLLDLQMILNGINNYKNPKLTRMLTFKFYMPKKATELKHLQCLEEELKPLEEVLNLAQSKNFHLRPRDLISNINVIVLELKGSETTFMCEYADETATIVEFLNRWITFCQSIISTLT
Description for PD-1: as §1
Description for PD-L1 (Eu-labeled): The cell-free expression samples containing V5-tagged scFvs were serially diluted in a 384-well plate. […] Plates were incubated at room temperature for 2 hours and the HTRF signal was read on an Envision (Perkin Elmer) equipped with an HTRF laser module.

B1: PD1-IL2-R06-E04 (scFv)
scFv: QVQLVQSGAEVKKPGASVKVSCKASGYTFTRYYIHWVRQAPGQGLEWMGWINAYNGDTNYAQKLQGRVTMTRDTSTSTVYMELSSLRSEDTAVYYCARDSYYYDSFDYWGQGTLVTVSSASGGGGSGGGGSGGGGSHASDIQMTQSPSSLSASVGDRVTITCRASQTITDWLAWYQQKPGKAPKLLIYGASNLQGGVPSRFSGSGSGTDFTLTISSLQPEDFATYYCQQYYSSWTFGQGTKVEIK
notes: cell-free expressed, V5-tagged
Take B1: in the assay with human IL-2 [1], the “IL2RB Blocking (HTRF signal)” value is 1110. The “IL2 Binding (HTRF signal)” value in the assay with human IL-2 [2] was found to be 247. Further, the “PD1 Binding (HTRF signal)” value in the assay with PD-1 stood at 50.

B2: PD1-IL2-R02-B05 (scFv)
scFv: QVQLVQSGAEVKKPGASVKVSCKASGYTFTNYYIHWVRQAPGQGLEWMGIINPRAGYTSYALKFQGRVTMTRDTSTSTVYMELSSLRSEDTAVYYCAGGWLDWGQGTLVTVSSASGGGGSGGGGSGGGGSHASDIQMTQSPSSLSASVGDRVTITCRASQSISSWLAWYQQKPGKAPKLLIYAASSLQSGVPSRFSGSGSGTDFTLTISSLQPEDFATYYCQQSFTMPITFGQGTRLEIK
B2: the “IL2RB Blocking (HTRF signal)” value in the assay with human IL-2 [1] came to 1610. In addition, in the assay with human IL-2 [2], the “IL2 Binding (HTRF signal)” value was 2490. The “PD1 Binding (HTRF signal)” value with PD-1 was 1660.

B3: PDL1-IFN-R01-A06 (scFv)
scFv: QVQLVQSGAEVKKPGASVKVSCKASGGTFSSYAISWVRQAPGQGLEWVGWMDPKSGNTGYAQKFQGRVTMTRDTSTSTVYMELSSLRSEDTAVYYCARSLFPTIFGVEVAFDIWGQGTLVTVSSASGGGGSGGGGSGGGGSHASDIQMTQSPSSLSASVGDRVTITCQASQDINNYLNWYQQKPGKAPKLLIYKASSLEPGVPSRFSGSGSGTDFTLTISSLQPEDFATYYCQKSNDVPFTFGQGTKVEIK
notes: expressed cell-free as Myc tag + scFv + V5 tag
Turning to B3, the “PDL1 Binding (HTRF signal)” value with PD-L1 (Eu-labeled) amounted to 2780.

B4: PDL1-IFN-R01-C08 (scFv)
scFv: QVQLVQSGAEVKKPGASVKVSCKASGGTFSSYAISWVRQAPGQGLEWMGIIDPSVTYTRYAQKFQGRVTMTRDTSTSTVYMELSSLRSEDTAVYYCARSLFPTIFGVEVAFDIWGQGTLVTVSSASGGGGSGGGGSGGGGSHASDIQMTQSPSSLSASVGDRVTITCQASQDISNYLNWYQQKPGKAPKLLIYGASTLQSGVPSRFSGSGSGTDFTLTISSLQPEDFATYYCQQTYSTPITFGQGTKVEIK
notes: as for B3
For B4, in the assay with PD-L1 (Eu-labeled), the “PDL1 Binding (HTRF signal)” value stood at 2750.

B5: PDL1-IFN-R01-C11 (scFv)
scFv: QVQLVQSGAEVKKPGASVKVSCKASGGTFSSYAISWVRQAPGQGLEWMGWMDANNGNTGYAQKFQGRVTMTRDTSTSTVYMELSSLRSEDTAVYYCARSLFPTIFGVEVAFDIWGQGTLVTVSSASGGGGSGGGGSGGGGSHASDIQMTQSPSSLSASVGDRVTITCRASQSVSSYLNWYQQKPGKAPKLLIYKASSLESGVPSRFSGSGSGTDFTLTISSLQPEDFATYYCQQSSSTPLSFGGGTKVEIK
notes: as for B3
B5: the “PDL1 Binding (HTRF signal)” value in the assay with PD-L1 (Eu-labeled) was 3040.

B6: PD1-IL2-R07-A04 (scFv)
scFv: QVQLVQSGAEVKKPGASVKVSCKASGYTFTDYYMHWVRQAPGQGLEWMGIINPRAGYTSYALKFQGRVTMTRDTSTSTVYMELSSLRSEDTAVYYCTSGMDVWGQGTLVTVSSASGGGGSGGGGSGGGGSHASDIQMTQSPSSLSASVGDRVTITCRASQSISTWLAWYQQKPGKAPKLLIYAASSLQSGVPSRFSGSGSGTDFTLTISSLQPEDFATYYCQQSYSFPVTFGQGTKVEIK
As to B6, in the assay with human IL-2 [1], the “IL2RB Blocking (HTRF signal)” value was 1610. For the same molecule, the “IL2 Binding (HTRF signal)” value with human IL-2 [2] stood at 973. Also, in the assay with PD-1, the “PD1 Binding (HTRF signal)” value was 730.

B7: PDL1-IFN-R01-B12 (scFv)
scFv: QVQLVQSGAEVKKPGASVKVSCKASGNTFTDYYMHWVRQAPGQGLEWMGWMNPNSGNTGYAQKFQGRVTMTRDTSTSTVYMELSSLRSEDTAVYYCARSLFPTIFGVEVAFDIWGQGTLVTVSSASGGGGSGGGGSGGGGSHASDIQMTQSPSSLSASVGDRVTITCQASQDISNYLNWYQQKPGKAPKLLIYAASSLQSGVPSRFSGSGSGTDFTLTISSLQPEDFATYYCQQSYSTPPTFGQGTRLEIK
notes: as for B3
For the molecule B7, the “PDL1 Binding (HTRF signal)” value in the assay with PD-L1 (Eu-labeled) turned out to be 2980.

B8: PDL1-IFN-R01-B09 (scFv)
scFv: QVQLVQSGAEVKKPGASVKVSCKASGGTFTGYYMHWVRQAPGQGLEWMGWVNPNSGNTGYAQKFQGRVTMTRDTSTSTVYMELSSLRSEDTAVYYCARSLFPTIFGVEVAFDIWGQGTLVTVSSASGGGGSGGGGSGGGGSHASDIQMTQSPSSLSASVGDRVTITCQASQDISNYLNWYQQKPGKAPKLLIYAASSLQSGVPSRFSGSGSGTDFTLTISSLQPEDFATYYCQQSYSPPPTFGQGTKLEIK
notes: as for B3
As to B8, in the assay with PD-L1 (Eu-labeled), the “PDL1 Binding (HTRF signal)” value was found to be 1380.

B9: PDL1-IFN-R01-A11 (scFv)
scFv: QVQLVQSGAEVKKPGASVKVSCKASGGTFSSYYMHWVRQAPGQGLEWMGWMNPNSGNTGYAQKFQGRVTMTRDTSTSTVYMELSSLRSEDTAVYYCARSLFPTIFGVEVAFDIWGQGTLVTVSSASGGGGSGGGGSGGGGSHASDIQMTQSPSSLSASVGDRVTITCQASQDITNYLNWYQQKPGKAPKLLIYAASSLESGVPSRFSGSGSGTDFTLTISSLQPEDFATYYCQQSYSIPITFGQGTRLEIK
notes: as for B3
As for B9, the “PDL1 Binding (HTRF signal)” value in the assay with PD-L1 (Eu-labeled) amounted to 2960.

B10: PD1-R07-A05 (scFv)
scFv: QVQLVQSGAEVKKPGASVKVSCKASGYTFTTYYVHWVRQAPGQGLEWMGIINPSGGSTSYAQNFQGRVTMTRDTSTSTVYMELSSLRSEDTAVYYCASGWDVWGQGTTVTVSSASGGGGSGGGGSGGGGSHASEIVMTQSPATLSVSPGERATLSCRASQSVNTYLAWYQQKPGQAPRLLIYGASTRATGIPARFSGSGSGTEFTLTISSLQSEDFAVYYCQQYGSSPVTFGQGTRLEIK
Take B10: the “IL2RB Blocking (HTRF signal)” value with human IL-2 [1] turned out to be 1730. In the assay with human IL-2 [2], the “IL2 Binding (HTRF signal)” value worked out at 19. The “PD1 Binding (HTRF signal)” value with PD-1 turned out to be 653.

B11: PD1-R04-C10 (scFv)
chain: MSTSTEQKLISEEDLQVQLVQSGAEVKKPGASVKVSCKASGYTFTTYYMHWVRQAPGQGLEWMGIINPSGGGTLYAQKFQGRVTMTRDTSTSTVYMELSSLRSEDTAVYYCAAGLFIWGQGTTVTVSSASGGGGSGGGGSGGGGSHASDIVMTQSPDSLAVSLGERATINCKASQSLLHSSSNKNYLAWYQQKPGQPPKLLIYWASTRESGVPDRFSGSGSGTDFTLTISSLQAEDVAVYYCQQYYSTPITFGPGTKVDIKGSGLNDIFEAQKIEWHEGKPIPNPLLGLDST
As for B11, the “IL2RB Blocking (HTRF signal)” value with human IL-2 [1] was 1550. The “IL2 Binding (HTRF signal)” value with human IL-2 [2] worked out at 4. The “PD1 Binding (HTRF signal)” value with PD-1 is 1550.

B12: PD1-IL2-R02-C02 (scFv)
scFv: QVQLVQSGAEVKKPGVSVKVSCKASGYTFPRSYIHWVRQAPGQGLEWMGWINPHSGDTYYAQNFQGRVTMTRDTSTSTVYMELSSLRSEDTAVYYCARDTGLGYYYGSGDFDYWGQGTLVTVSSASGGGGSGGGGSGGGGSHASDIQMTQSPSSLSASVGDRVTITCRASQSISRYLNWYQQKPGKAPKLLIYTASSLQSGVPSRFSGSGSGTDFTLTISSLQPEDFATYYCQQANRFPLTFGPGTKVDIK
notes: as for B1
B12: in the assay with human IL-2 [1], the “IL2RB Blocking (HTRF signal)” value worked out at 1070. In the assay with human IL-2 [2], the “IL2 Binding (HTRF signal)” value was found to be 298. The “PD1 Binding (HTRF signal)” value with PD-1 was 1300.

B13: PD1-IL2-R07-A09 (scFv)
scFv: QVQLVQSGAEVKKPGASVKVSCKASGYTFTSYYMHWVRQAPGQGLEWMGIINPSDGSTTYAQSFQGRVTMTRDTSTSTVYMELSSLRSEDTAVYYCASGWDVWGQGTLVTVSSASGGGGSGGGGSGGGGSHASDIVMTQSPDSLAVSLGERATINCKSSQSVFSSANNKNYLAWYQQKPGQPPKLLIYWASTRESGVPDRFSGSGSGTDFTLTISSLQAEDVAVYYCQQYFGTPVTFGGGTKVEIK
notes: as for B1
For B13, the “IL2RB Blocking (HTRF signal)” value in the assay with human IL-2 [1] amounted to 910. In addition, the “IL2 Binding (HTRF signal)” value in the assay with human IL-2 [2] was 2040. Besides, in the assay with PD-1, the “PD1 Binding (HTRF signal)” value worked out at 1240.

B14: PD1-IL2-R02-A11 (scFv)
scFv: QVQLVQSGAEVKKPGASVKVSCKASGHTFTRYYMHWVRQAPGQGLEWMGIINPSGGYATYAQKFQGRVTMTRDTSTSTVYMELSSLRSEDTAVYYCASGWDVWGQGTLVTVSSASGGGGSGGGGSGGGGSHASDIQMTQSPSSLSASVGDRVTITCRASQSINSWLAWYQQKPGKAPKLLIYATSTLESGVPSRFSGSGSGTDFTLTISSLQPEDFATYYCQQSYSFPPTFGQGTKVEIK
Consider B14, for which the “IL2RB Blocking (HTRF signal)” value with human IL-2 [1] worked out at 1780. Also, in the assay with human IL-2 [2], the “IL2 Binding (HTRF signal)” value came to 1560. The “PD1 Binding (HTRF signal)” value with PD-1 was 1620.

B15: PD1-IL2-R02-C03 (scFv)
scFv: QVQLVQSGAEVKKPGASVKVSCKASGYTFPRYHIHWVRQAPGQGLEWMGMINPSGGTTTYAQKFQGRVTMTRDTSTSTVYMELSSLRSEDTAVYYCARDTGLGYYYGSGDFDYWGQGTLVTVSSASGGGGSGGGGSGGGGSHASDIQMTQSPSSLSASVGDRVTITCRASQSISSWLAWYQQKPGKAPKLLIYAASSLQSGVPSRFSGSGSGTDFTLTISSLQPEDFATYYCQQSHSFPLTFGGGTKVEIK
notes: as for B1
B15: the “IL2RB Blocking (HTRF signal)” value in the assay with human IL-2 [1] stood at 1210. In addition, the “IL2 Binding (HTRF signal)” value with human IL-2 [2] was found to be 293. Further, the “PD1 Binding (HTRF signal)” value with PD-1 was found to be 1380.

B16: Anti-IFN control (SEQ ID NO: 30) (scFv)
scFv: EVQLVESGGGLVQPGGSLRLSCATSGYTFTEYIIHWVRQAPGKGLEWVASINPDYDITNYNQRFKGRFTISLDKSKRTAYLQMNSLRAEDTAVYYCASWISDFFDYWGQGTLVTVSSASGGGGSGGGGSGGGGSHASDIQMTQSPSSLSASVGDRVTITCRASQSVSTSSYSYMHWYQQKPGKAPKVLISYASNLESGVPSRFSGSGSGTDFTLTISSLQPEDFATYYCQHSWGIPRTFGQGTKVEIK
notes: control scFv; also called Anti-IFNα control
With B16, in the assay with PD-L1 (Eu-labeled), the “PDL1 Binding (HTRF signal)” value was found to be 416.

B17: PD1-IL2-R02-B07 (scFv)
scFv: QVQLVQSGAEVKKPGASVKVSCKASGDTFTRHYVHWVRQAPGQGLEWMGIINPSGGYASYAQKFQGRVTMTRDTSTSTVYMELSSLRSEDTAVYYCAAGLFIWGQGTLVTVSSASGGGGSGGGGSGGGGSHASDIQMTQSPSSLSASVGDRVTITCRASQSIGRWLAWYQQKPGKAPKLLIYSASNLETGVPSRFSGSGSGTDFTLTISSLQPEDFATYYCQQANSFPVTFGPGTKVDIK
For the molecule B17, in the assay with human IL-2 [1], the “IL2RB Blocking (HTRF signal)” value was determined as 1810. Further, in the assay with human IL-2 [2], the “IL2 Binding (HTRF signal)” value is 628. Besides, the “PD1 Binding (HTRF signal)” value in the assay with PD-1 stood at 1680.
